Data as given in US4235962A, “Combination kit for transaminase assay of a body fluid” (The Dow Chemical Company, priority 1978, dated 1980).

How the values were obtained:
[1] = substrate: C[C@H](N)C(=O)O; test: purified protein, by the assay type; conditions: other: 15 mM 2-oxoglutarate
[2] = substrate: N[C@@H](CC(=O)O)C(=O)O; test: purified protein, by the assay type
Description: For precise measurement of a bimolecular reaction of the type under discussion, the rate of a reaction, at a given "B" concentration should be independent of A's concentration (i.e. at or near apparent Vmax with respect to A).
A. AST cross measurement in an ALT test for a ping pong mechanism, [formula] […] [formula]
Going through the same mathematical explanation: [formula]

| Protein | Km [1] [mM] | Km ([2]; other: 0.2 mM 2-oxoglutarate) [mM] | Km ([2]; other: 15 mM 2-oxoglutarate) [mM] |
| --- | --- | --- | --- |
| ALT (alanine 2-oxoglutarate aminotransferase) (Homo sapiens) (protein) ASSTGDRSQAVRHGLRAKVLTLDGMNPRVRRVEYAVRGPIVQRALELEQELRQGVKKPFTEVIRANIGDAQAMGQRPITFLRQVLALCVNPDLLSSPNFPDDAKKRAERILQACGGHSLGAYSVSSGIQLIREDVARYIERRDGGIPADPNNVFLSTGASDAIVTVLKLLVAGEGHTRTGVLIPIPQYPLYSATLAELGAVQVDYYLDEERAWALDVAELHRALGQARDHCRPRALCVINPGNPTGQVQTRECIEAVIRFAFEERLFLLADEVYQDNVYAAGSQFHSFKKVLMEMGPPYAGQQELASFHSTSKGYMGECGFRGGYVEVVNMDAAVQQQMLKLMSVRLCPPVPGQALLDLVVSPPAPTDPSFAQFQAEKQAVLAELAAKAKLTEQVFNEAPGISCNPVQGAMYSFPRVQLPPRAVERAQELGLAPDMFFCLRLLEETGICVVPGSGFGQREGTYHFRMTILPPLEKLRLLLEKLSRFHAKFTLEYS | 18.1 |  |  |
| AST (aspartate 2-oxoglutarate aminotransferase) (Homo sapiens) (protein) APPSVFAEVPQAQPVLVFKLTADFREDPDPRKVNLGVGAYRTDDCHPWVLPVVKKVEQKIANDNSLNHEYLPILGLAEFRSCASRLALGDDSPALKEKRVGGVQSLGGTGALRIGADFLARWYNGTNNKNTPVYVSSPTWENHNAVFSAAGFKDIRSYRYWDAEKRGLDLQGFLNDLENAPEFSIVVLHACAHNPTGIDPTPEQWKQIASVMKHRFLFPFFDSAYQGFASGNLERDAWAIRYFVSEGFEFFCAQSFSKNFGLYNERVGNLTVVGKEPESILQVLSQMEKIVRITWSNPPAQGARIVASTLSNPELFEEWTGNVKTMADRILTMRSELRARLEALKTPGTWNHITDQIGMFSFTGLNPKQVEYLVNEKHIYLLPSGRINVSGLTTKNLDYVATSIHEAVTKIQ |  | 0.91 | 10 |
